Values quoted from earlier work, collected in article PMC13292882.

Tests used:
[1] = target: RPA (Homo sapiens) (UniProt P27694); assay: competition peptide displacement; settings: cited from earlier work
[2] = target: PCNA (Homo sapiens) (UniProt P12004); settings: cited from earlier work
Sequence of PCNA (Homo sapiens) (P12004 whole entry): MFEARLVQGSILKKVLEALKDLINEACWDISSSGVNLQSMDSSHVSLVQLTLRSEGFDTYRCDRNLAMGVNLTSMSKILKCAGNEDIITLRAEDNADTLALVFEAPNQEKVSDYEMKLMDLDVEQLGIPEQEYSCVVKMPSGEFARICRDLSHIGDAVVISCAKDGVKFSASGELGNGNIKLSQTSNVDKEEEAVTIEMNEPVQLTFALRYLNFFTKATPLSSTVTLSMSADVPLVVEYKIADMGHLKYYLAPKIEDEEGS

Sequence of UNG2 (P13051 whole entry): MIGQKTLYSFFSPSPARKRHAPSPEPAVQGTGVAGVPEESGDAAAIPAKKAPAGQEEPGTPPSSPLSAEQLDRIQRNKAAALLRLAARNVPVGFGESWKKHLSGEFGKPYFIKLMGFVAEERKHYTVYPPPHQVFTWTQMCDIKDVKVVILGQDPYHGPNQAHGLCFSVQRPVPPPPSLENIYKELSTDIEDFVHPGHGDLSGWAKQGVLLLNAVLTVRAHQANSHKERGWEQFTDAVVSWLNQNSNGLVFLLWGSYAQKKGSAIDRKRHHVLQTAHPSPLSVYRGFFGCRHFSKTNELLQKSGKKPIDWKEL
Sequence of RPA (Homo sapiens) (P27694 2-616, chain 1 of 3): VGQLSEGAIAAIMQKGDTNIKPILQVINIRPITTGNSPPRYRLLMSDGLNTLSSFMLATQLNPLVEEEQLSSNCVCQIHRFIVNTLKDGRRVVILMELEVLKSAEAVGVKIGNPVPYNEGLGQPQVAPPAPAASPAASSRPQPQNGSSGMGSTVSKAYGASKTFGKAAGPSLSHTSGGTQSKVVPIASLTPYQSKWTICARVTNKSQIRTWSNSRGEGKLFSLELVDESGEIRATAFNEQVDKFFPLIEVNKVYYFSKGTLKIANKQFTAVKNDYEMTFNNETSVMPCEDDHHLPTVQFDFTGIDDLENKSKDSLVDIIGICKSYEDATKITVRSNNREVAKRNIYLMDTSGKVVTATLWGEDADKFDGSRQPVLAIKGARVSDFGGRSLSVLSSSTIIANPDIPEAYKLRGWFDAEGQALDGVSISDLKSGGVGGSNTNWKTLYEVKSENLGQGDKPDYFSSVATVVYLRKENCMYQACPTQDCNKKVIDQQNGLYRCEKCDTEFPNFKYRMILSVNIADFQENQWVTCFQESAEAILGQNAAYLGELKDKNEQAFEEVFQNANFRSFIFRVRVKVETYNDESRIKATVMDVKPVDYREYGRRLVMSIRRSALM
Sequence of RPA (Homo sapiens) (P15927 whole entry, chain 2 of 3, further chain): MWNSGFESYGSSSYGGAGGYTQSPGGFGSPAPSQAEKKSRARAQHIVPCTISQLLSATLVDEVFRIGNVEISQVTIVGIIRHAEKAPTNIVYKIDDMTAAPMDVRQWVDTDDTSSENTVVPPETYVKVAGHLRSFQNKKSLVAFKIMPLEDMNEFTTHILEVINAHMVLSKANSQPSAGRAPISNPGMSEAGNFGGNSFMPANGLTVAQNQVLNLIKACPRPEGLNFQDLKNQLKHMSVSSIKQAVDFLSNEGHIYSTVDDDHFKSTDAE
Sequence of RPA (Homo sapiens) (P35244 2-121, chain 3 of 3, further chain): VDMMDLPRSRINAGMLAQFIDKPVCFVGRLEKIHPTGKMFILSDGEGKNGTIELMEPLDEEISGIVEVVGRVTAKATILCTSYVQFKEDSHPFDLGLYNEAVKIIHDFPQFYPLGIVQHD

## UNG2 (from UniProt P13051)
[1]
  Kd: 3 µM
[2]
  Kd: 1 µM
